{"source": "patent US20210340562", "assay_in_all_cases": "EMSA", "key": {"[1]": {"tested_on": "R2Bm GR/AD/A mutant GR/AD/A (double point, presumptive alpha-finger)", "conditions": "3' PBM RNA; reduced 24%; with 5' PBM RNA reduced about 13%"}, "[2]": {"tested_on": "R2Bm SR/AGR/A mutant SR/AGR/A (double point, presumptive alpha-finger)", "conditions": "3' PBM RNA (upstream binding); increased up to 32%"}, "[3]": {"tested_on": "R2Bm SR/AIR/A mutant SR/AIR/A (double point, presumptive alpha-finger)", "conditions": "3' PBM RNA; reduced 13%; with 5' PBM RNA reduced 19-28%"}, "R2Bm protein (WT)": {"target": "R2Bm protein (WT) (UniProt V9H052)", "sequence (V9H052 entry or part of it)": "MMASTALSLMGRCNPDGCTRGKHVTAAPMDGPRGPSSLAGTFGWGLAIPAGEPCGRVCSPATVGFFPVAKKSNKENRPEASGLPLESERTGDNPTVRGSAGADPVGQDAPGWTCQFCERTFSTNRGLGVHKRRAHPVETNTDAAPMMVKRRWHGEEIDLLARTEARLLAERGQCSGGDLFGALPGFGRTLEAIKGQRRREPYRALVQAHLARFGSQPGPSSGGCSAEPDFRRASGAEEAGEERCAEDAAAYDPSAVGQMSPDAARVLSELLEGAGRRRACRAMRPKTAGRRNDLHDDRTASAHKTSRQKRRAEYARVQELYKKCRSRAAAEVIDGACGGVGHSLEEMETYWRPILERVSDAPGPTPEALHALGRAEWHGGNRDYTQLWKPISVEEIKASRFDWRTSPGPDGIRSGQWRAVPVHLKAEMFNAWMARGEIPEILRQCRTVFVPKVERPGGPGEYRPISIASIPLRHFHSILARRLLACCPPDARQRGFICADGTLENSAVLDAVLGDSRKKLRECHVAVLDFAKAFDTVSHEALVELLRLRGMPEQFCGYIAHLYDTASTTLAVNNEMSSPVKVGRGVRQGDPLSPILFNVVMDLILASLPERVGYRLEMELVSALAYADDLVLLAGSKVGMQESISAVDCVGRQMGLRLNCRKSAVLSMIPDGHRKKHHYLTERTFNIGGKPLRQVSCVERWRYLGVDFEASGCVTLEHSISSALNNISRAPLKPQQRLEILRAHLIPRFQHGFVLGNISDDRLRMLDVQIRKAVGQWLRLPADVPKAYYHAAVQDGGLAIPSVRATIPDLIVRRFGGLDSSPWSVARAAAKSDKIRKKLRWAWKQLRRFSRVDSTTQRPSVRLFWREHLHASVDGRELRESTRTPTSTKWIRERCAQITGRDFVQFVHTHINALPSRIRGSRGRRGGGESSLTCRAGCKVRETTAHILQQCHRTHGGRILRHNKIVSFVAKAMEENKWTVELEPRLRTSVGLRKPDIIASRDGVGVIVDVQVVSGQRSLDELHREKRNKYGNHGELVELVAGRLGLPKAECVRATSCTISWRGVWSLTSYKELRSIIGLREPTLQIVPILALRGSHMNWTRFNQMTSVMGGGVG", "conditions": "3' or 5' PBM RNA; reference"}}}
{"substance": "linear 28S rDNA target", "values": [{"measurement": "binding signal (fraction of WT)", "setting": "[1]", "result": 0.76}, {"measurement": "binding signal (fraction of WT)", "setting": "[2]", "result": 1.32}, {"measurement": "binding signal (fraction of WT)", "setting": "[3]", "result": 0.87}, {"measurement": "binding signal (fraction of WT)", "setting": "R2Bm protein (WT)", "result": 1}]}
